Numbering of substitutions follows the chain as printed.
T1: Ffh (UniProt P0AGD7 1-453)
T1 chain: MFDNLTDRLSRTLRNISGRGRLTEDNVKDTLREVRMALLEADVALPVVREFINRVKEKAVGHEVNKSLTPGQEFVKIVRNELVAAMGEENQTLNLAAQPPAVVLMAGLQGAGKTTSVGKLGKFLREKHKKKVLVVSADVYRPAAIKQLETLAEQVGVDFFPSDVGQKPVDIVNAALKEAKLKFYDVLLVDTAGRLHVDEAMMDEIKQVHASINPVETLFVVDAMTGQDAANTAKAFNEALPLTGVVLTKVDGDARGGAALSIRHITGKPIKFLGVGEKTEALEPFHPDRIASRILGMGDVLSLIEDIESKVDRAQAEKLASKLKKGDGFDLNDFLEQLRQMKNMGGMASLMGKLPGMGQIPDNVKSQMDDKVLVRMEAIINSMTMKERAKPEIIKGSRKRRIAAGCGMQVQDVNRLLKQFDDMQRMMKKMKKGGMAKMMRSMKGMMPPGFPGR

B1: FtsY T307(112)A (domain or fragment)
chain: ASEQAVEEQPQAHTEAEAETFAADVVEVTEQVAESEKAQPEAEVVAQPEPVVEETPEPVAIEREELPLPEDVNAEAVSPEEWQAEAETVEIVEAAEEEAAKEEITDEELETALAAEAAEEAVMVVPPAEEEQPVEEIAQEQEKPTKEGFFARLKRSLLKTKENLGSGFISLFRGKKIDDDLFEELEEQLLIADVGVETTRKIITNLTEGASRKQLRDAEALYGLLKEEMGEILAKVDEPLNVEGKAPFVILMVGVNGVGKATTIGKLARQFEQQGKSVMLAAGDTFRAAAVEQLQVWGQRNNIPVIAQHTGADSASVIFDAIQAAKARNIDVLIADTAGRLQNKSHLMEELKKIVRVMKKLDVEAPHEVMLTIDASTGQNAVSQAKLFHEAVGLTGITLTKLDGTAKGGVIFSVADQFGIPIRYIGVGERIEDLRPFKADDFIEALFARED
B2: FtsY D330(135)A (protein)
chain: B1 chain with A261T, D284A
B3: FtsY G454(253)W (protein)
chain: B1 chain with A261T, G408W
B4: FtsY K312(117)A (protein)
chain: B1 chain with A261T, K266A
B5: FtsY R333(138)A (domain or fragment)
chain: B1 chain with A261T, R287A
B6: FtsY A336(141)W (domain or fragment)
chain: B1 chain with A261T, A290W
B7: FtsY D382(187)A (protein)
chain: B1 chain with A261T, D336A
B8: FtsY K306(111)A (protein)
chain: B1 chain with K260A, A261T
B9: FtsY K447(246)A (protein)
chain: B1 chain with A261T, K401A
B10: FtsY Asn302(107) to Trp (domain or fragment)
chain: B1 chain with N256W, A261T
B11: FtsY T307(112)W (protein)
chain: B1 chain with A261W
B12: FtsY Asn302(107) to Ala (domain or fragment)
chain: B1 chain with N256A, A261T
B13: FtsY D479(278)A (protein)
chain: B1 chain with A261T, D433A
B14: FtsY K453(252)E (protein)
chain: B1 chain with A261T, K407E
B15: FtsY Q339(144)A (protein)
chain: B1 chain with A261T, Q293A

Molecular target: T1, Ffh
Test: GTP; inhibition assay

Row | Binder | Ki
1 | B1 | 5.5 µM

Molecular target: T1, Ffh
Test: GTP; inhibition assay
Remark: another data set of the same source

Row | Binder | Ki
2 | B2 | 2.4 µM
3 | B3 | 4.2 µM
4 | B4 | 2.4 µM
5 | B5 | 0.24 µM
6 | B6 | 0.16 µM
7 | B7 | 27 µM
8 | B8 | 3.5 µM
9 | B9 | 11 µM
10 | B1 | 7.1 µM
11 | B10 | 0.14 µM
12 | B11 | 9.9 µM
13 | B12 | 0.11 µM
14 | B13 | 2.8 µM
15 | B14 | 3.1 µM
16 | B15 | 3.9 µM

Reference: PMC517823 (2004)
